Measured values reported in IntAct's records for PubMed 14669021.

B1: Protein ORD (Drosophila melanogaster (Fruit fly)), Q24434 (parent)
chain: MYGETTLNKNHVIKFIKLKINNCLGCDEVEINFSKADNVHIIIYSLVTDMAKDLPAVTPVAQAILLLCSLTYPDSDSLETIPQLKIGKGSVSMSFKVYPVNKEEETEPESESDLDEGPSTSKQALERMVQRAERKAKEASTRNVHSKGIYVNVERRFDMYFALDTVSYYINGGKRQSCPLPEFHAKFFVRPQHSINLLRQLHEKCSGNWLKVIQSDGDGDAFKKFKDPDSPFETFVKLFESNPIKPNDMMGKLAKTCLHVNEAVRLTEREFILEVFNQVRHIFEYITAQEYTVWFLVPCLGDKDQLRSKTLEDFDLTKVRTSIRRAGDTSNIWWDHTDHNIKDILLVAFQLDLATHVNQSVLVISHLETLAEFSTMQYVTAFFMNDFYAKKNTEPKWICHRYLERIIDVALFLGVIVIIEYPSAFTLLQEGRHLIKCFQKENADSSRTSQWEIFEDVVKENESDLEFLKEAVGKVQQNV
partner: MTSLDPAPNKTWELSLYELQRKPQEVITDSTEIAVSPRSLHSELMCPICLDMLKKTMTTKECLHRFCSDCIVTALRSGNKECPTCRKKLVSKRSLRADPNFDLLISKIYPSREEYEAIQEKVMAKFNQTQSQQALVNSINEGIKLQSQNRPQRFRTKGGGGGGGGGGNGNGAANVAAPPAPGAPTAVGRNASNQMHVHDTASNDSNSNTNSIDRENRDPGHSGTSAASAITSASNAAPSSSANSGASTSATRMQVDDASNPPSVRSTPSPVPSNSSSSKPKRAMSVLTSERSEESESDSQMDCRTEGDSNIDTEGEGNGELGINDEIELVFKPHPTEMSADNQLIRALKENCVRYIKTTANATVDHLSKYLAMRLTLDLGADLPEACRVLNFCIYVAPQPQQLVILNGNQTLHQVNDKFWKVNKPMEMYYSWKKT

Variants of: B1
Details: with ring1_drome Sce

Variant | effect of a mutation on the interaction
MYGETTLNKNHVIKFIKLKINNCLGCDEVEINFSKADNVHIIIYSLVTDMAKDLPAVTPVAQAILLLCSLTYPDSDSLETIPQLKIGKGSVSMSFKVYPVNKEEETEPESESDLDEGPSTSKQALERMVQRAERKAKEASTRNVHSKGIYVNVERRFDMYFALDTVSYYINGGKRQSCPLPEFHAKFFVRPQHSINLLRQLHEKCSGNWLKVIQSDGDGDAFKKFKDPDSPFETFVKLFESNPIKPNDMMGKLAKTCLHVNEAVRLTEREFILEVFNQVRHIFEYITAQEYTVWFLVPCLGDKDQLRSKTLEDFDLTKVRTSIRRAGDTSNIWWDHTDHNIKDILLVAFQLDLATHVNQSVLVISHLETLAEFSTMQYVTAFFMNDFYAKKNTEPKWICHRYLERIIDVALFLGVIDIIEYPSAFTLLQEGRHLIKCFQKENADSSRTSQWEIFEDVVKENESDLEFLKEAVGKVQQNV [V417D] | decreasing interaction
